What was measured:
[1] = biological target: Human infectious Norovirus (genotype GII-4); test: Norovirus captured on Con A-bound sepharose 4B resin, Ct values by RT-PCR
[2] = biological target: Human infectious Norovirus (genotype GII-4); test: BLI, antibody and Con A each immobilized on ARG2 chips, same concentration of Norovirus
Hepatitis A virus (HAV) = test: cell-based or functional assay
Rotavirus = test: cell-based or functional assay

Substance: concanavalin A (Con A, sigma) (from UniProt P02866 30-281)
- collection rate [1]: 94.1%
- fold stronger binding than the antibody [2]: 3 fold
- concentration of HAV (copy number by RT-PCR) in FRhk-4 cells, Con A plus HAV group (Hepatitis A virus (HAV)): 27000 unit
- concentration of Rotavirus (copy number by RT-PCR) in MA-104 cells, Con A plus Rotavirus group (Rotavirus): 64000 unit
